Source: patent publication US20130287795A1 (FUNDACION CENTRO NACIONAL DE INVESTIGACIONES ONCOLOGICAS, published 2013)

T1: recombinant human ephrin B3-Fc (R & D) (human, UniProt Q15768 28-224)
T1 construct: Bought protein (R & D); also called EB3; not shown: Fc part of the bought fusion protein is not described
T1 sequence (looked up): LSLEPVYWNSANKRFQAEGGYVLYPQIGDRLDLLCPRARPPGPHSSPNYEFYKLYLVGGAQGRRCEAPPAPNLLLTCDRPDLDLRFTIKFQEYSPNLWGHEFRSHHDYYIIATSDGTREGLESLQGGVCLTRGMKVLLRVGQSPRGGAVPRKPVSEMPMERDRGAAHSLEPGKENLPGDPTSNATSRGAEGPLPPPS

T2: recombinant mouse ephrin B1-Fc (R & D) (mouse, UniProt P52795 30-229)
T2 construct: Bought protein (R & D); also called EB1; not shown: Fc part of the bought fusion protein is not described
T2 sequence (looked up): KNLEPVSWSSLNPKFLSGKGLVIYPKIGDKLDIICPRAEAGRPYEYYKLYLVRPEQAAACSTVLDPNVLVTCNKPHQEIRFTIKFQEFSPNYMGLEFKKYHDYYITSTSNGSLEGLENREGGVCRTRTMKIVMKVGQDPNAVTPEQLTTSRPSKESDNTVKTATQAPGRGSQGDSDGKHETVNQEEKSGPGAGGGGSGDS


Key:
[1] = molecular target: T3, ephrin B2-Fc (extracellular region of ephrin B2 fused to the Fc domain of human IgG, expressed in mammalian … (human)); assay: SPR (Biacore X), ephrin B2-Fc immobilised on CM5 chip, scFv at 0.4, 0.2, 0.1, 0.05 uM, Langmuir 1:1 model
T3 construct: extracellular domain; Antigen used for panning, ELISA and Biacore; also called extracellular region of the ephrin B2
Method: (§1) The two selected scFv, B11 and 2B1, were characterized using various techniques. First we determined the antibodies affinity constants to the ephrin B2 by means of surface plasmon resonance technique on a Biacore X, with the extracellular region of the immobilized ephrin B2 and different dilutions of purified scFv. […] Then, it was analyzed, using the same technique, the capacity of the antibodies to compete for the binding of ephrin B2 to its natural receptor Eph B4. To this end, Eph B4-Fc was immobilized on a chip and the binding to ephrin B2 was measured in the presence of different concentrations of B11 or 2B1. […] However, the 2B1 antibody has no blocking effect (FIG. 5).
(§2) To study the affinity constants of the scFv was used the technique of surface plasmon resonance with the BIAcore X equipment (BIAcore). The ephrin B2-Fc was covalently bound to CM5 chip surface (GE Healthcare) upon activation of the carboxyl groups of the dextran matrix of the chip with 0.4 M EDC (1-ethyl-3-(-dimethylaminopropyl)-carbodiimide) and 0.1 M NHS(N-hydroxysuccinimide) in a 1:1 ratio for 7 minutes at a flow rate of 10 μl/minute. The ephrin B2-Fc protein was diluted to 10 μg/ml in 10 mM sodium acetate at pH 4 and 30 μl of this solution was passed over the chip surface at a flow rate of 10 μl/min in HBS-EP buffer (10 mM HEPES pH 7.4, 150 mM NaCl, 3 mM EDTA, 0.005% surfactant P20) (GE Healthcare). […]

[2] = molecular target: T1, recombinant human ephrin B3-Fc (R & D); assay: immunoblot; periplasmic fraction of the scFv, detected with anti c-Myc and anti-mouse peroxidase conjugate
Method: (§3) Recombinant mouse proteins ephrin B1-Fc, mouse ephrin B2-Fc and human ephrin B3-Fc (R & D) were separated electrophoretically in polyacrylamide-SDS 10% gels and transferred onto nitrocellulose membrane (GE Healthcare). After blocking the membrane with PBS-3% skimmed milk powder for 1 hour, it was incubated with 1:5 diluted periplasmic fraction in PBS-3% powdered milk for 16 hours at 4° C. The secondary antibodies used were anti c-Myc (Sigma) at a 1:1000 dilution for 2 hours at room temperature and anti-mouse peroxidase conjugate (Sigma) diluted 1:5000 for 1 hour at room temperature. Visualization was performed by incubation with ECL reagent (ECL, “Enhanced Chemiluminescence”) (GE Healthcare).

[3] = molecular target: T2, recombinant mouse ephrin B1-Fc (R & D); assay: as above
Method: as §3

[4] = molecular target: T3, ephrin B2-Fc (extracellular region of …); assay: SPR competition: serial dilutions of scFv mixed with 0.2 uM ephrin B2-Fc, injected over immobilised Eph B4
Method: A. Graph showing the percent of binding of ephrin B2 to Eph B4. Binding inhibition tests of ephrin B2 to Eph B4 in the presence of scFv anti-ephrin B2 by surface plasmon resonance. Serial dilutions of scFv B11 (•) or 2B1 (∘) were mixed with ephrin B2 and injected over Eph B4 immobilized on a chip. The relative amount of ephrin B2 bound to Eph B4 was measured immediately after injection of each sample and plotted as a function of the concentration of scFv. […] B. The scFv B11 is capable of blocking the interaction between ephrin B2 and Eph B4 receptor in a cellular assay. Analysis of tyrosines phosphorylation of the Eph B4 receptor in HUVEC cells in response to stimulation with ephrin B2 overexpressed on the surface of HEK293 cells. HUVEC and HEK293 cells overexpressing ephrin B2 were cocultured for 20 minutes in the presence or absence of anti-ephrin B2 scFv. After Eph B4 receptor immunoprecipitation, it was analyzed the total amount of this protein (lower panel) and its level of phosphorylation (upper panel) by immunoblot.
The ability of scFv to inhibit the binding of ephrin B2 to its EphB4 receptor was analyzed by surface plasmon resonance competitive binding assay. Soluble Eph B4 (R&D) was conjugated to a CM5 chip (GE Healthcare) using the same protocol described above. […]

[5] = molecular target: T3, ephrin B2-Fc (extracellular region of …); assay: SPR (Biacore X), ephrin B2-Fc immobilised on CM5 chip, scFv at 30, 20, 10 and 7.5 uM, Langmuir 1:1 model
Method: as §1, §2

T3 sequence (P52799 whole entry, the tested form may be a part): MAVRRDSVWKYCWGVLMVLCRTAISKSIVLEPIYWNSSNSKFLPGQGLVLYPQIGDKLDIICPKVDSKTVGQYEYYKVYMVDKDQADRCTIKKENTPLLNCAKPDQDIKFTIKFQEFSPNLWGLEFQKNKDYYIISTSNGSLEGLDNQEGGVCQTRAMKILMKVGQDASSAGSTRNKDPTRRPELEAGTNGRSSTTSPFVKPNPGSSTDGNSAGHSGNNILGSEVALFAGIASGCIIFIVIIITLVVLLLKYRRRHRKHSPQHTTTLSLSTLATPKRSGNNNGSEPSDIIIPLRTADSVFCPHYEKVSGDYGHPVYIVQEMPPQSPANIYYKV

Kd [1] | binding result [2] | binding result [3] | IC50 [4] | Kd [5] | Binder
110 nM | no binding | no binding | 300 nM | – | scFv B11 (human anti-ephrin B2 single chain variable fragment) (scFv, Expressed from pET28b in the E. coli periplasm with c-myc and a histidine tail; also called clone B11; B11 antibody) scFv: QVQLVQSGAEVKKPGASVRLSCEASGYTFTDYYIHWVRQAPGQGLEWMGWMNPSSGNTGYAQKFQGRVTMTRNTSISTAYMELSSLRSEDTAVYYCARDITGTATGFDYWGQGTLVTVSSGGGGSGGGGSGGGGSEIVLTQSPLSLPVTLGQPASISCRSSQSLLHSNGYNYLDWYLQKPGQSPQLLIYLGSNRASGVPDRFSGSGSGTDFTLKISRVEAEDVGVYYCMQGLLSPVTFGQGTRLDIKRTVAAPTAAAEQKLISEEDLNGAALEHHHHHH
– | no binding | no binding | – | 630 nM | scFv 2B1 (human anti-ephrin B2 single chain variable fragment) (scFv, Expressed from pET28b in the E. coli periplasm with a histidine tail; also called clone 2B1; 2B1 antibody) scFv: QVQLVQSGGGLVQPGRSLRLSCAASGFTFDDYAMHWVRQAPGKGLEWVSGISWNSGSIGYADSVKGRFTISRDNAKNSLYLQMNSLRAEDTALYYCARGHRTSDAFDIWGQGTMVTVSSGGGGSGGGGSGGGGSQPVLTQPPSVSLAPGKTARITCGGDSIGLKSVHWYQQKPGQAPVLVMSSDSDRPSGIPDRFSGSNSGNTATLTITRVEAGDEADYYCQVWDSSSDHMVFGGGTKLTVLGQPKAAPSAAALEDYKDDDDKHHHHHH
